In series [1] the test system is tumours. The following applies: human, in vivo. As for the experimental part:
The radiolabelling procedure used was as follows.
(§1) Pre-therapeutic positron emission tomography/computed tomography (PET/CT) imaging was carried out 1 hour and 3 hours post injection with the imaging agent. […] Patient 1 was then administered with the therapeutic agent. […] single-photon emission computed tomography (SPECT) imaging was then carried out 1.5 hours, 17 hours, 41 hours, 65 hours and 141 hours post injection with the therapeutic agent.
(§2) Patient 2 was then administered with the therapeutic agent. […] SPECT imaging was then carried out 4.5 hours, 20 hours, 45 hours, 67 hours and 141 hours post injection with the therapeutic agent.
(§3) PET/CT imaging was performed using a Siemens Biograph mCT Flow PET/CT. SPECT imaging was performed using a Siemens Intevo SPECT/CT.

A short description of series [2]: clinical. The following applies: for accumulation and retention in tumours (SPECT): up to 141 hours post injection. The protocol: A dosimetry study was carried out using Compound 3 to investigate the suitability of the compounds described herein for use in imaging and radiotherapy.
The radiolabelling procedure used was as follows. Compound 3 was dissolved in ultrapure water (2 μg/μl) and 1.5 mL of 0.4 M sodium acetate buffer at pH 4.8 (8 mg/mL). Gentisic acid was added and the mixture was transferred to a ^177Lu V-vial. The vial was heated for 25 minutes at 95° C.
as §1, §2, §3

In series [3] the target is cMet receptor (Homo sapiens, UniProt P08581). The experiment in a line: Competition binding assay by fluorescence polarisation (FP). The note with it: mean; competition FP vs Cy5-labelled probe 20 nM, cMet receptor 50 nM, PBS pH 7.4 with 0.01% Tween 20. As for the experimental part:
The half maximal inhibitory concentration (IC50) and dissociation constant (Kd) values were determined by competition fluorescence polarisation (FP) assay for the binding of cMet binding cyclic peptide (unlabelled), cMet-DOTA (Compound 3) and cMet-DOTAGA (Compound 4) to cMet receptor.
The principle of the fluorescence polarisation method can briefly be described as follows:
Monochromatic light passes through a […] polarizing filter and excites fluorescent molecules in the sample. Only those molecules that are oriented properly in the vertically polarized plane adsorb light, become excited, and subsequently emit light. The emitted light is measured in both horizontal and vertical planes. The anisotropy value (A), is the ratio between the light intensities following the equation:
A=(Intensity with horizontal polarizer—Intensity with vertical polarizer)/(Intensity with horizontal polarizer+2* Intensity with vertical polarizer).
The fluorescence anisotropy measurements were performed in a 96-well flat bottom plate using a Molecular Devices M5 multi-mode plate reader.
The assay buffer used was phosphate-buffered saline (PBS), pH 7.4 with 0.01% Tween 20. […]
IC50 values were determined by data fitting with the following equation using KaleidaGraph v4.03: […]
Kd values were determined by data fitting with the following equation using KaleidaGraph v4.03: […]

[4] abbreviates: patient 1, 835 MBq, tumours (individual clusters).
The mark [5] stands for this setting: patient 2, 959 MBq, tumours (individual VOIs).

The structures appear in SMILES notation. Where “and” joins values, the source holds several entries; their conditions need not be identical. Equal entries are not always repeated. Positions of bridges follow the written chain, without caps; N, C: chain ends. Residues, ends and D or L forms follow the SMILES beside them. *: point of attachment. DOTA = O=C(O)CN1CCN(CC(=O)O)CCN(CC(=O)*)CCN(CC(=O)O)CC1

As usually defined, the half-life is the time in which the quantity being followed falls by half. Low values mean rapid decline, high ones slow decline. In general, IC50 refers to the concentration that gives 50% inhibition. Read a high IC50 as a need for much substance. By Kd is commonly meant the concentration at which binding is half-saturated. A low value points to a tighter complex.

Sequence of cMet receptor (P08581 25-932 limits assumed): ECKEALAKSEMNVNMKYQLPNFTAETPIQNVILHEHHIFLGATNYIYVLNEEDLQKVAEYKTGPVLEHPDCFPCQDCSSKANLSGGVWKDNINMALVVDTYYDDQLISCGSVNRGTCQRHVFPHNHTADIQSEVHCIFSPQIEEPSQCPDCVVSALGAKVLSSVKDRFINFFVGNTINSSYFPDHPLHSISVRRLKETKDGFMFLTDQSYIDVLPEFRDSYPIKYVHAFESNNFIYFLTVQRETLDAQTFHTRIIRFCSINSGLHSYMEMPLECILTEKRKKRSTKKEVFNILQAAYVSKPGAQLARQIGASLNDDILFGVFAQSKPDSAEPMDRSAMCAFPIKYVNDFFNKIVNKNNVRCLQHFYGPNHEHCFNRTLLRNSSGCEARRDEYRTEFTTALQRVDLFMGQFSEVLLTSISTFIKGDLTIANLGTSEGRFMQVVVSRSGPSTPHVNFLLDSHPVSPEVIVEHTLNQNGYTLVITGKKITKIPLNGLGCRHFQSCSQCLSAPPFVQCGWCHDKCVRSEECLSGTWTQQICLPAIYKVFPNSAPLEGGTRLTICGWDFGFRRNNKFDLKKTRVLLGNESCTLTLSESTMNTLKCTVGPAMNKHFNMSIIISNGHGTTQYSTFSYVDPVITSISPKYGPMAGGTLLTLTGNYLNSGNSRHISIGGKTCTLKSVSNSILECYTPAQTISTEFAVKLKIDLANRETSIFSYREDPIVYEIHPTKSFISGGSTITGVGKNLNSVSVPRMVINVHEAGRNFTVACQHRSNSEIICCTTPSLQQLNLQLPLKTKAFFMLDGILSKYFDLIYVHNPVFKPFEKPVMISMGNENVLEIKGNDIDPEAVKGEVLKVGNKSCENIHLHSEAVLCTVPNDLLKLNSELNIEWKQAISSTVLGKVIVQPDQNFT

For the molecule `CC(=O)N[C@@H](C)C(=O)NCC(=O)N[C@@H](CO)C(=O)N[C@H]1CSSC[C@@H](C(=O)N[C@@H](Cc2ccc(O)cc2)C(=O)N[C@@H](CCC(=O)O)C(=O)N[C@H](C(=O)N[C@@H](CCC(=O)O)C(=O)NCC(=O)N[C@H](C(=O)NCC(=O)NCC(=O)NCC(=O)N[C@@H](CCCCNC(=O)CN2CCN(CC(=O)O)CCN(CC(=O)O)CCN(CC(=O)O)CC2)C(N)=O)[C@@H](C)O)[C@@H](C)O)NC(=O)[C@H](Cc2c[nH]c3ccccc23)NC(=O)[C@@H]2CSSC[C@H](NC(=O)[C@H](Cc3ccc(O)cc3)NC1=O)C(=O)N[C@@H](CO)C(=O)NCC(=O)N1CCC[C@H]1C(=O)N1CCC[C@H]1C(=O)N[C@@H](CCCNC(=N)N)C(=O)N[C@@H](Cc1ccccc1)C(=O)N[C@@H](CCC(=O)O)C(=O)N2` [^68Ga-Compound 3, metal not drawn] (Ac-AGSCYCSGPPRFECWCYETEGTGGGK(DOTA)-NH2; disulfide 4-16, 6-14), the “accumulation in tumours (PET/CT)” value in series [1] is “accumulation”.

Consider `CC(=O)N[C@@H](C)C(=O)NCC(=O)N[C@@H](CO)C(=O)N[C@H]1CSSC[C@@H](C(=O)N[C@@H](Cc2ccc(O)cc2)C(=O)N[C@@H](CCC(=O)O)C(=O)N[C@H](C(=O)N[C@@H](CCC(=O)O)C(=O)NCC(=O)N[C@H](C(=O)NCC(=O)NCC(=O)NCC(=O)N[C@@H](CCCCNC(=O)CN2CCN(CC(=O)O)CCN(CC(=O)O)CCN(CC(=O)O)CC2)C(N)=O)[C@@H](C)O)[C@@H](C)O)NC(=O)[C@H](Cc2c[nH]c3ccccc23)NC(=O)[C@@H]2CSSC[C@H](NC(=O)[C@H](Cc3ccc(O)cc3)NC1=O)C(=O)N[C@@H](CO)C(=O)NCC(=O)N1CCC[C@H]1C(=O)N1CCC[C@H]1C(=O)N[C@@H](CCCNC(=N)N)C(=O)N[C@@H](Cc1ccccc1)C(=O)N[C@@H](CCC(=O)O)C(=O)N2` [^177Lu-Compound 3, metal not drawn] (Ac-AGSCYCSGPPRFECWCYETEGTGGGK(DOTA)-NH2; disulfide 4-16, 6-14), for which the half-life was 37 h in series [2] (human, kidney (left), Half-life, patient 2, 959 MBq); 21 h in series [2] (human, kidney (left), Halflife, patient 1, 835 MBq); 40 h in series [2] (human, kidney (right), Half-life, patient 2, 959 MBq); 21 h in series [2] (human, kidney (right), Halflife, patient 1, 835 MBq); 77 h in series [2] (human, liver, Half-life, patient 2, 959 MBq); 73 h in series [2] (human, liver, Halflife, patient 1, 835 MBq). The half-life in series [2] (human, spleen, Half-life, patient 2, 959 MBq) was 58 h; in series [2] (human, spleen, Halflife, patient 1, 835 MBq), 39 h; in series [2] (human, tumours (individual VOIs), Half-life, patient 2, 959 MBq), 28 h; in series [2] (human, tumours (individual clusters), Halflife, patient 1, 835 MBq) it was 42 h; in series [2] (setting [5]), 27 h. In addition, the Dose in series [2] (patient 1, 835 MBq, kidney (left)) is 1.04 Gy; in series [2] (patient 1, 835 MBq, kidney (right)), 1.02 Gy; in series [2] (setting [4]), 0.4 Gy and 0.43 Gy and 0.36 Gy; in series [2] (patient 2, 959 MBq, kidney (left), VOI 2466), 1.87 Gy; in series [2] (patient 2, 959 MBq, kidney (left), VOI K-l-iso (Isocont.)), 1.73 Gy; in series [2] (patient 2, 959 MBq, kidney (right), VOI 2548) it was 1.06 Gy. In addition, the Dose in series [2] (setting [5]) was 0.08 Gy and 0.05 Gy and 0.04 Gy. Further, the Halflife in series [2] (setting [4]) is 48 h and 32 h and 59 h. For the same molecule, the “accumulation and retention in tumours (SPECT)” value was “accumulation and retention” in series [2] (patient 1, 835 MBq); “accumulation and retention” in series [2] (patient 2, 959 MBq).

Regarding `CC(=O)N[C@@H](C)C(=O)NCC(=O)N[C@@H](CO)C(=O)N[C@H]1CSSC[C@@H](C(=O)N[C@@H](Cc2ccc(O)cc2)C(=O)N[C@@H](CCC(=O)O)C(=O)N[C@H](C(=O)N[C@@H](CCC(=O)O)C(=O)NCC(=O)N[C@H](C(=O)NCC(=O)NCC(=O)NCC(=O)N[C@@H](CCCCN)C(N)=O)[C@@H](C)O)[C@@H](C)O)NC(=O)[C@H](Cc2c[nH]c3ccccc23)NC(=O)[C@@H]2CSSC[C@H](NC(=O)[C@H](Cc3ccc(O)cc3)NC1=O)C(=O)N[C@@H](CO)C(=O)NCC(=O)N1CCC[C@H]1C(=O)N1CCC[C@H]1C(=O)N[C@@H](CCCNC(=N)N)C(=O)N[C@@H](Cc1ccccc1)C(=O)N[C@@H](CCC(=O)O)C(=O)N2` [cMet peptide (unlabelled)] (HELM PEPTIDE1{[ac].A.G.S.C.Y.C.S.G.P.P.R.F.E.C.W.C.Y.E.T.E.G.T.G.G.G.K.[am]}$PEPTIDE1,PEPTIDE1,5:R3-17:R3|PEPTIDE1,PEPTIDE1,7:R3-15:R3$$$V2.0), in series [3], the IC50 was 320 ± 37 nM and the Kd was 6.9 ± 0.8 nM.

The values are drawn from patent publication US20220273830A1, “COMPOUNDS AND METHODS OF USE” (EDINBURGH MOLECULAR IMAGING LIMITED, priority 2019, published 2022).
